Drawing on publication PMC8189181, this text covers Kd for 1 substance.

In this experiment the target is Fzd1-mApple. The experiment can be described thus: quasi-PIE fluorescence cross-correlation spectroscopy (FCCS); live zebrafish embryos co-expressing the EGFP- and mApple-tagged proteins; dorsal cerebellum and midbrain hindbrain boundary; room temperature; FLCS-based statistical filtering of spectral cross talk; apparent Kd.

As for Wnt3C80A-EGFP (ligand), the Kd is 313 nM.
